Experimental data published in PMC11246235 (Cell, 2024).
Where two headings read alike, the source gives them in different places. One block for each binder: values may come before it.

B2: Stn1 (natural protein, human, UniProt Q9H668 1-368, looked up)
chain: MQPGSSRCEEETPSLLWGLDPVFLAFAKLYIRDILDMKESRQVPGVFLYNGHPIKQVDVLGTVIGVRERDAFYSYGVDDSTGVINCICWKKLNTESVSAAPSAARELSLTSQLKKLQETIEQKTKIEIGDTIRVRGSIRTYREEREIHATTYYKVDDPVWNIQIARMLELPTIYRKVYDQPFHSSALEKEEALSNPGALDLPSLTSLLSEKAKEFLMENRVQSFYQQELEMVESLLSLANQPVIHSASSDQVNFKKDTTSKAIHSIFKNAIQLLQEKGLVFQKDDGFDNLYYVTREDKDLHRKIHRIIQQDCQKPNHMEKGCHFLHILACARLSIRPGLSEAVLQQVLELLEDQSDIVSTMEHYYTAF

How the values were obtained:
Assay in all cases: cryo-EM structure
Ctc1 (His6-MBP-Ctc1) [1] = target: T1, Ctc1 (His6-MBP-Ctc1) (human, UniProt Q2NKJ3 1-1217)
T1 sequence (looked up): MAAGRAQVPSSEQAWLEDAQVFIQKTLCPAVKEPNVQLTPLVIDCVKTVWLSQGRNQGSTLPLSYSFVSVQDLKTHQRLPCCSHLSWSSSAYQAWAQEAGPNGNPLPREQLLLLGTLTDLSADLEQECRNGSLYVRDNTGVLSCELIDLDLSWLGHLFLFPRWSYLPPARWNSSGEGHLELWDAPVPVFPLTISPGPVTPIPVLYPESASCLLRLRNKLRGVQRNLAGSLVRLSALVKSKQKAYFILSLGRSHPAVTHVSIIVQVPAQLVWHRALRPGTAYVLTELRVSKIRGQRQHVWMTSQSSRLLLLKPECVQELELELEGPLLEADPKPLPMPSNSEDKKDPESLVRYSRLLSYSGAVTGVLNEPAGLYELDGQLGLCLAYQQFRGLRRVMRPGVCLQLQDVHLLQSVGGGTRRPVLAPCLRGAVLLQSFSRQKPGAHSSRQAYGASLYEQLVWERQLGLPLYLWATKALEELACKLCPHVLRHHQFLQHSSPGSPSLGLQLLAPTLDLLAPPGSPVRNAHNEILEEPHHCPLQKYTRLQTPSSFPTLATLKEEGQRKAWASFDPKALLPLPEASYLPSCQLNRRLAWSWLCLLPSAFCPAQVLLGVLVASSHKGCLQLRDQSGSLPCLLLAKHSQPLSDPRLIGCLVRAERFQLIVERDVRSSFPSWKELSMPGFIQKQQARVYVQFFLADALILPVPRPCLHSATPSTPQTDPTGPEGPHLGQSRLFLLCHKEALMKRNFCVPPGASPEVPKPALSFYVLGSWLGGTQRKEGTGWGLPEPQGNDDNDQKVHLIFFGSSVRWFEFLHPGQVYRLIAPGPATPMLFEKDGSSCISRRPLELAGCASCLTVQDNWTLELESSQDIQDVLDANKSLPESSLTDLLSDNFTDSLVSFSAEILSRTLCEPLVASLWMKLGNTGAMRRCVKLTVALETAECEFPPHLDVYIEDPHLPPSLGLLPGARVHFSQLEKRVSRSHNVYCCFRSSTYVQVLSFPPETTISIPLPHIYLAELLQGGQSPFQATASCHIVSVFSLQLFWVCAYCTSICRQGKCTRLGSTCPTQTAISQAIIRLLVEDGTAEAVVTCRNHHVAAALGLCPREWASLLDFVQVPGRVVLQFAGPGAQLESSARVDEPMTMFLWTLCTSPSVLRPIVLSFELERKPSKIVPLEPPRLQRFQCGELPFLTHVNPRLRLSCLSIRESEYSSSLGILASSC

Ctc1 (His6-MBP-Ctc1) [2] = target: T1, Ctc1 (His6-MBP-Ctc1); remark: listed apart in the source
Stn1 = target: B2

binding result (Ctc1 (His6-MBP-Ctc1) [1]): binds
B1: POT1(ESDL) (natural protein, human, UniProt Q9NUX5 1-634, looked up)
chain: MSLVPATNYIYTPLNQLKGGTIVNVYGVVKFFKPPYLSKGTDYCSVVTIVDQTNVKLTCLLFSGNYEALPIIYKNGDIVRFHRLKIQVYKKETQGITSSGFASLTFEGTLGAPIIPRTSSKYFNFTTEDHKMVEALRVWASTHMSPSWTLLKLCDVQPMQYFDLTCQLLGKAEVDGASFLLKVWDGTRTPFPSWRVLIQDLVLEGDLSHIHRLQNLTIDILVYDNHVHVARSLKVGSFLRIYSLHTKLQSMNSENQTMLSLEFHLHGGTSYGRGIRVLPESNSDVDQLKKDLESANLTANQHSDVICQSEPDDSFPSSGSESDLVSLYEVERCQQLSATILTDHQYLERTPLCAILKQKAPQQYRIRAKLRSYKPRRLFQSVKLHCPKCHLLQEVPHEGDLDIIFQDGATKTPDVKLQNTSLYDSKIWTTKNQKGRKVAVHFVKNNGILPLSNECLLLIEGGTLSEICKLSNKFNSVIPVRSGHEDLELLDLSAPFLIQGTIHHYGCKQCSSLRSIQNLNSLVDKTSWIPSSVAEALGIVPLQYVFVMTFTLDDGTGVLEAYLMDSDKFFQIPASEVLMDDDLQKSVDMIMDMFCPPGIKIDAYPWLECFIKSYNVTNGTDNQICYQIFDTTVAEDVI
modifications: phosphorylated in insect cells (sites not determined)

Binder: B2
binding result (Ctc1 (His6-MBP-Ctc1) [2]): binds

binding result (Stn1): binds
B3: Ten1 (natural protein, human, UniProt Q86WV5 1-123, looked up)
chain: MMLPKPGTYYLPWEVSAGQVPDGSTLRTFGRLCLYDMIQSRVTLMAQHGSDQHQVLVCTKLVEPFHAQVGSLYIVLGELQHQQDRGSVVKARVLTCVEGMNLPLLEQAIREQRLYKQERGGSQ
